Experimental data published in patent US20030229005A1.

What was measured:
Test in all cases: cell-based or functional assay
[1] = molecular target: human Collagenase-3 (human) (UniProt P45452)
collagenase 1 = collagenase 1 (UniProt P03956)
[2] = molecular target: human Gelatinase-A (human) (UniProt P08253)
Chain of human Gelatinase-A (human) (P08253 110-660 limits assumed): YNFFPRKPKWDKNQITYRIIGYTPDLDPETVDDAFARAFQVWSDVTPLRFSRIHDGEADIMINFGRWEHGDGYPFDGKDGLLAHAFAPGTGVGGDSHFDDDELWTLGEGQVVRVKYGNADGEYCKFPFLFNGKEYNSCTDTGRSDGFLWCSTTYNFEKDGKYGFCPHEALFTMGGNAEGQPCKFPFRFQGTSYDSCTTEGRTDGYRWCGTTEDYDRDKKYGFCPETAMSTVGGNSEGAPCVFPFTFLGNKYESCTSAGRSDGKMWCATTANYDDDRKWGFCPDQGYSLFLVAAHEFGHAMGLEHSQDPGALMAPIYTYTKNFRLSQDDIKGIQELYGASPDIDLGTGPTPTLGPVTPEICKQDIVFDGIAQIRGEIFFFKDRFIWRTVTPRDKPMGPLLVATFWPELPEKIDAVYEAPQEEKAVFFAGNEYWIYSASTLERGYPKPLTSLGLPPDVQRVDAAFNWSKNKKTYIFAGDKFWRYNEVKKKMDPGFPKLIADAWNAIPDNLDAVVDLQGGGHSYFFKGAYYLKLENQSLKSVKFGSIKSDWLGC

Chain of collagenase 1 (P03956 100-469 limits assumed): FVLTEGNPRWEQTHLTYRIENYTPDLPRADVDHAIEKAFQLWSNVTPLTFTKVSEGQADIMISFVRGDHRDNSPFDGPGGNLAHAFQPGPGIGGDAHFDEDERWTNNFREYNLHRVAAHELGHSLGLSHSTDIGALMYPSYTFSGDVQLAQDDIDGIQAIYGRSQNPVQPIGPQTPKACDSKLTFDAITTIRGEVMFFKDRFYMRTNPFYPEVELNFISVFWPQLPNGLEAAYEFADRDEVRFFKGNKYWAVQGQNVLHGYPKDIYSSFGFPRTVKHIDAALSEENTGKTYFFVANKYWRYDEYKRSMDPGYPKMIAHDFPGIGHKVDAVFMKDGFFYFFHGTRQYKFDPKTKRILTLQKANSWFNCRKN

Average Percent Inhibition, 2.10-3.10 h, TypeIICOL 44 ug/ul [1]: -71%
Average Percent Inhibition, 2.10-3.10 h, TypeIICOL .18 ug/ul [1]: -10%
Average Percent Inhibition, 2.10-3.10 h, TypeIICOL .55 ug/ul [1]: -15%
Average Percent Inhibition, 3.10-4.10 h, TypeIICOL 1.6 ug/ul [1]: -13%
Average Percent Inhibition, 3.10-4.10 h, TypeIICOL 4.9 ug/ul [1]: -31%
Average Percent Inhibition, 3.10-4.10 h, TypeIICOL 15 ug/ul [1]: -50%
Average Percent Inhibition, 3.10-4.10 h, TypeIICOL 44 ug/ul [1]: -60%
Average Percent Inhibition, 3.10-4.10 h, TypeIICOL .18 ug/ul [1]: -8%
Average Percent Inhibition, 3.10-4.10 h, TypeIICOL .55 ug/ul [1]: -12%
Average Percent Inhibition, 4.10-5.10 h, TypeIICOL 1.6 ug/ul [1]: -12%
Average Percent Inhibition, 4.10-5.10 h, TypeIICOL 4.9 ug/ul [1]: -25%
Average Percent Inhibition, 4.10-5.10 h, TypeIICOL 15 ug/ul [1]: -41%
Average Percent Inhibition, 4.10-5.10 h, TypeIICOL 44 ug/ul [1]: -49%
Average Percent Inhibition, 4.10-5.10 h, TypeIICOL .18 ug/ul [1]: -7%
Average Percent Inhibition, 4.10-5.10 h, TypeIICOL .55 ug/ul [1]: -10%
Average Percent Inhibition, 5.10-6.10 h, TypeIICOL 1.6 ug/ul [1]: -11%
Average Percent Inhibition, 5.10-6.10 h, TypeIICOL 4.9 ug/ul [1]: -21%
Average Percent Inhibition, 5.10-6.10 h, TypeIICOL 15 ug/ul [1]: -34%
Average Percent Inhibition, 5.10-6.10 h, TypeIICOL 44 ug/ul [1]: -41%
Average Percent Inhibition, 5.10-6.10 h, TypeIICOL .18 ug/ul [1]: -6%
Average Percent Inhibition, 5.10-6.10 h, TypeIICOL .55 ug/ul [1]: -10%
Average Percent Inhibition from 1.1 to 6.6 Hours, Type II Collagen 0.18 ug/ml (collagenase 1): 0%
Average Percent Inhibition from 1.1 to 6.6 Hours, Type II Collagen 0.54 ug/ml (collagenase 1): 3%
Average Percent Inhibition from 1.1 to 6.6 Hours, Type II Collagen 1.63 ug/ml (collagenase 1): 0%
Average Percent Inhibition from 1.1 to 6.6 Hours, Type II Collagen 4.89 ug/ml (collagenase 1): 2%
Average Percent Inhibition from 1.1 to 6.6 Hours, Type II Collagen 14.67 ug/ml (collagenase 1): 10%
Average Percent Inhibition from 1.1 to 6.6 Hours, Type II Collagen 44.00 ug/ml (collagenase 1): 15%
Average Percent Inhibition, 0.10-1.10 h, TypeIICOL 1.6 ug/ul (collagenase 1): 19%
Average Percent Inhibition, 0.10-1.10 h, TypeIICOL 4.9 ug/ul (collagenase 1): 37%
Average Percent Inhibition, 0.10-1.10 h, TypeIICOL 15 ug/ul (collagenase 1): 44%
Average Percent Inhibition, 0.10-1.10 h, TypeIICOL 44 ug/ul (collagenase 1): 50%
Average Percent Inhibition, 0.10-1.10 h, TypeIICOL .18 ug/ul (collagenase 1): 17%
Average Percent Inhibition, 0.10-1.10 h, TypeIICOL .55 ug/ul (collagenase 1): 15%
Average Percent Inhibition, 1.10-2.10 h, TypeIICOL 1.6 ug/ul (collagenase 1): 6%
Average Percent Inhibition, 1.10-2.10 h, TypeIICOL 4.9 ug/ul (collagenase 1): 13%
Average Percent Inhibition, 1.10-2.10 h, TypeIICOL 15 ug/ul (collagenase 1): 21%
Average Percent Inhibition, 1.10-2.10 h, TypeIICOL 44 ug/ul (collagenase 1): 29%
Average Percent Inhibition, 1.10-2.10 h, TypeIICOL .18 ug/ul (collagenase 1): 3%
Average Percent Inhibition, 1.10-2.10 h, TypeIICOL .55 ug/ul (collagenase 1): 6%
Average Percent Inhibition, 2.10-3.10 h, TypeIICOL 1.6 ug/ul (collagenase 1): 0%
Average Percent Inhibition, 2.10-3.10 h, TypeIICOL 4.9 ug/ul (collagenase 1): 3%
Average Percent Inhibition, 2.10-3.10 h, TypeIICOL 15 ug/ul (collagenase 1): 12%
Average Percent Inhibition, 2.10-3.10 h, TypeIICOL 44 ug/ul (collagenase 1): 18%
Average Percent Inhibition, 2.10-3.10 h, TypeIICOL .18 ug/ul (collagenase 1): 0%
Average Percent Inhibition, 2.10-3.10 h, TypeIICOL .55 ug/ul (collagenase 1): 3%
Average Percent Inhibition, 3.10-4.10 h, TypeIICOL 1.6 ug/ul (collagenase 1): -2%
Average Percent Inhibition, 3.10-4.10 h, TypeIICOL 4.9 ug/ul (collagenase 1): 0%
Average Percent Inhibition, 3.10-4.10 h, TypeIICOL 15 ug/ul (collagenase 1): 8%
Average Percent Inhibition, 3.10-4.10 h, TypeIICOL 44 ug/ul (collagenase 1): 12%
Average Percent Inhibition, 3.10-4.10 h, TypeIICOL .18 ug/ul (collagenase 1): -1%
Average Percent Inhibition, 3.10-4.10 h, TypeIICOL .55 ug/ul (collagenase 1): 2%
Average Percent Inhibition, 4.10-5.10 h, TypeIICOL 1.6 ug/ul (collagenase 1): -3%
Average Percent Inhibition, 4.10-5.10 h, TypeIICOL 4.9 ug/ul (collagenase 1): -2%
Average Percent Inhibition, 4.10-5.10 h, TypeIICOL 15 ug/ul (collagenase 1): 6%
Average Percent Inhibition, 4.10-5.10 h, TypeIICOL 44 ug/ul (collagenase 1): 9%
Average Percent Inhibition, 4.10-5.10 h, TypeIICOL .18 ug/ul (collagenase 1): -1%
Average Percent Inhibition, 4.10-5.10 h, TypeIICOL .55 ug/ul (collagenase 1): 1%
Average Percent Inhibition, 5.10-6.10 h, TypeIICOL 1.6 ug/ul (collagenase 1): -4%
Average Percent Inhibition, 5.10-6.10 h, TypeIICOL 4.9 ug/ul (collagenase 1): -4%
Average Percent Inhibition, 5.10-6.10 h, TypeIICOL 15 ug/ul (collagenase 1): 4%
Average Percent Inhibition, 5.10-6.10 h, TypeIICOL 44 ug/ul (collagenase 1): 7%
Average Percent Inhibition, 5.10-6.10 h, TypeIICOL .18 ug/ul (collagenase 1): -1%
Average Percent Inhibition, 5.10-6.10 h, TypeIICOL .55 ug/ul (collagenase 1): 1%
Average Percent Inhibition from 1.1 to 6.6 Hours, Type II Collagen 0.18 ug/ml [2]: 2%
Average Percent Inhibition from 1.1 to 6.6 Hours, Type II Collagen 0.54 ug/ml [2]: 6%
Average Percent Inhibition from 1.1 to 6.6 Hours, Type II Collagen 1.63 ug/ml [2]: -52%
Average Percent Inhibition from 1.1 to 6.6 Hours, Type II Collagen 4.89 ug/ml [2]: 32%
Average Percent Inhibition from 1.1 to 6.6 Hours, Type II Collagen 14.67 ug/ml [2]: 56%
Average Percent Inhibition from 1.1 to 6.6 Hours, Type II Collagen 44.00 ug/ml [2]: 83%
Average Percent Inhibition, 0.10-1.10 h, TypeIICOL 1.6 ug/ul [2]: -27%
Average Percent Inhibition, 0.10-1.10 h, TypeIICOL 4.9 ug/ul [2]: 37%
Average Percent Inhibition, 0.10-1.10 h, TypeIICOL 15 ug/ul [2]: 56%
Average Percent Inhibition, 0.10-1.10 h, TypeIICOL 44 ug/ul [2]: 58%
Average Percent Inhibition, 0.10-1.10 h, TypeIICOL .18 ug/ul [2]: 3%
Average Percent Inhibition, 0.10-1.10 h, TypeIICOL .55 ug/ul [2]: 2%
Average Percent Inhibition, 1.10-2.10 h, TypeIICOL 1.6 ug/ul [2]: 4%
Average Percent Inhibition, 1.10-2.10 h, TypeIICOL 4.9 ug/ul [2]: 43%
Average Percent Inhibition, 1.10-2.10 h, TypeIICOL 15 ug/ul [2]: 64%
Average Percent Inhibition, 1.10-2.10 h, TypeIICOL 44 ug/ul [2]: 78%
Average Percent Inhibition, 1.10-2.10 h, TypeIICOL .18 ug/ul [2]: 9%
Average Percent Inhibition, 1.10-2.10 h, TypeIICOL .55 ug/ul [2]: 11%
Average Percent Inhibition, 2.10-3.10 h, TypeIICOL 1.6 ug/ul [2]: -11%
Average Percent Inhibition, 2.10-3.10 h, TypeIICOL 4.9 ug/ul [2]: 46%
Average Percent Inhibition, 2.10-3.10 h, TypeIICOL 15 ug/ul [2]: 70%
Average Percent Inhibition, 2.10-3.10 h, TypeIICOL 44 ug/ul [2]: 86%
Average Percent Inhibition, 2.10-3.10 h, TypeIICOL .18 ug/ul [2]: 7%
Average Percent Inhibition, 2.10-3.10 h, TypeIICOL .55 ug/ul [2]: 12%
Average Percent Inhibition, 3.10-4.10 h, TypeIICOL 1.6 ug/ul [2]: -37%
Average Percent Inhibition, 3.10-4.10 h, TypeIICOL 4.9 ug/ul [2]: 37%
Average Percent Inhibition, 3.10-4.10 h, TypeIICOL 15 ug/ul [2]: 64%
Average Percent Inhibition, 3.10-4.10 h, TypeIICOL 44 ug/ul [2]: 87%
Average Percent Inhibition, 3.10-4.10 h, TypeIICOL .18 ug/ul [2]: 3%
Average Percent Inhibition, 3.10-4.10 h, TypeIICOL .55 ug/ul [2]: 8%
Average Percent Inhibition, 4.10-5.10 h, TypeIICOL 1.6 ug/ul [2]: -68%
Average Percent Inhibition, 4.10-5.10 h, TypeIICOL 4.9 ug/ul [2]: 27%
Average Percent Inhibition, 4.10-5.10 h, TypeIICOL 15 ug/ul [2]: 53%
Average Percent Inhibition, 4.10-5.10 h, TypeIICOL 44 ug/ul [2]: 85%
Average Percent Inhibition, 4.10-5.10 h, TypeIICOL .18 ug/ul [2]: 0%
Average Percent Inhibition, 4.10-5.10 h, TypeIICOL .55 ug/ul [2]: 4%
Average Percent Inhibition, 5.10-6.10 h, TypeIICOL 1.6 ug/ul [2]: -104%
Average Percent Inhibition, 5.10-6.10 h, TypeIICOL 4.9 ug/ul [2]: 19%
Average Percent Inhibition, 5.10-6.10 h, TypeIICOL 15 ug/ul [2]: 41%
Average Percent Inhibition, 5.10-6.10 h, TypeIICOL 44 ug/ul [2]: 82%
Average Percent Inhibition, 5.10-6.10 h, TypeIICOL .18 ug/ul [2]: -3%
Average Percent Inhibition, 5.10-6.10 h, TypeIICOL .55 ug/ul [2]: -1%
Substance: bovine type II collagen (from UniProt P02459 182-1241)
